Patent US20260183437A1, “VHH ANTIBODY CONJUGATES WITH HETEROARYL CHELATORS” (ABDERA THERAPEUTICS INC., priority 2022, published 2026)

Assays:
Experiment in all cases: ABC (Antibody Binding Capacity) assay, receptor density
Format in all cases: cell-based
H82 = tested on: H82
Procedure: (§1) In order to test efficacy of the immunoconjugate binding with respect to target density receptor density was measured on target positive cell lines. Target density was measured using the ABC (Antibody Binding Capacity) assay. Cancer cells expressing the target of interest, as well as a negative control cell line, were harvested with cell dissociation buffer, seeded at about 5×10^4 cells per well into 96-well V bottom plate (Sarstedt 82.1583.001). Cells were tested for receptor expression using QuantiBRITE PE beads (BD Cat #340495) and a PE-conjugated anti-hu IgG (Biolegend clone HP6017) following the manufacturers' instructions. In brief, VHH-Fc and isotype control antibodies were prepared at suitable saturating concentrations based on previous experiments. Antibody sample dilutions were incubated with the panel of cell lines on ice for 1 hour. Cells were washed twice with 1% FBS in 1×PBS (FACS buffer), centrifuged at 400 G for 4 min. Cells were then incubated with 4 μg/mL mouse PE-conjugated anti-hu and DAPI (1:1000) for 30 minutes on ice. Cells were washed twice with FACS buffer, centrifuged at 400 G for 4 minutes and resuspended in FACS buffer. Fluorescence intensity on the PE channel was measured on the iQue Screener platform, and data were processed with ForeCyt software. The amount of PE signal generated from the different primary antibody was then fit to a standard curve based off of known PE molecules/Quantibrite bead samples to determine the number of antibody-binding sites per cell. Relative antibody binding sites correlate to the number of antigens or receptors on cell surface.

HEK-DLL3 = tested on: HEK-DLL3
Procedure: as §1

SHP-77 = tested on: SHP-77
Procedure: as §1

B1: Rovalpituzumab: control antibody for DLL3 binding (Creative Biolabs #TAB-216CL) (antibody, chains of the INN, looked up, V domains shown)
VH: QVQLVQSGAEVKKPGASVKVSCKASGYTFTNYGMNWVRQAPGQGLEWMGWINTYTGEPTYADDFKGRVTMTTDTSTSTAYMELRSLRSDDTAVYYCARIGDSSPSDYWGQGTLVTVSS
VL: EIVMTQSPATLSVSPGERATLSCKASQSVSNDVVWYQQKPGQAPRLLIYYASNRYTGIPARFSGSGSGTEFTLTISSLQSEDFAVYYCQQDYTSPWTFGQGTKLEIK
Estimated number of epitopes/cell (H82): 936 epitopes/cell
Estimated number of epitopes/cell (HEK-DLL3): 1679 epitopes/cell
Estimated number of epitopes/cell (SHP-77): 969 epitopes/cell
